Test results reported in PMC6168507 (2018).

Biological target: LRP-1 (Homo sapiens, UniProt Q07954)
Assay: ELISA

Chain of LRP-1 (Q07954 20-4544): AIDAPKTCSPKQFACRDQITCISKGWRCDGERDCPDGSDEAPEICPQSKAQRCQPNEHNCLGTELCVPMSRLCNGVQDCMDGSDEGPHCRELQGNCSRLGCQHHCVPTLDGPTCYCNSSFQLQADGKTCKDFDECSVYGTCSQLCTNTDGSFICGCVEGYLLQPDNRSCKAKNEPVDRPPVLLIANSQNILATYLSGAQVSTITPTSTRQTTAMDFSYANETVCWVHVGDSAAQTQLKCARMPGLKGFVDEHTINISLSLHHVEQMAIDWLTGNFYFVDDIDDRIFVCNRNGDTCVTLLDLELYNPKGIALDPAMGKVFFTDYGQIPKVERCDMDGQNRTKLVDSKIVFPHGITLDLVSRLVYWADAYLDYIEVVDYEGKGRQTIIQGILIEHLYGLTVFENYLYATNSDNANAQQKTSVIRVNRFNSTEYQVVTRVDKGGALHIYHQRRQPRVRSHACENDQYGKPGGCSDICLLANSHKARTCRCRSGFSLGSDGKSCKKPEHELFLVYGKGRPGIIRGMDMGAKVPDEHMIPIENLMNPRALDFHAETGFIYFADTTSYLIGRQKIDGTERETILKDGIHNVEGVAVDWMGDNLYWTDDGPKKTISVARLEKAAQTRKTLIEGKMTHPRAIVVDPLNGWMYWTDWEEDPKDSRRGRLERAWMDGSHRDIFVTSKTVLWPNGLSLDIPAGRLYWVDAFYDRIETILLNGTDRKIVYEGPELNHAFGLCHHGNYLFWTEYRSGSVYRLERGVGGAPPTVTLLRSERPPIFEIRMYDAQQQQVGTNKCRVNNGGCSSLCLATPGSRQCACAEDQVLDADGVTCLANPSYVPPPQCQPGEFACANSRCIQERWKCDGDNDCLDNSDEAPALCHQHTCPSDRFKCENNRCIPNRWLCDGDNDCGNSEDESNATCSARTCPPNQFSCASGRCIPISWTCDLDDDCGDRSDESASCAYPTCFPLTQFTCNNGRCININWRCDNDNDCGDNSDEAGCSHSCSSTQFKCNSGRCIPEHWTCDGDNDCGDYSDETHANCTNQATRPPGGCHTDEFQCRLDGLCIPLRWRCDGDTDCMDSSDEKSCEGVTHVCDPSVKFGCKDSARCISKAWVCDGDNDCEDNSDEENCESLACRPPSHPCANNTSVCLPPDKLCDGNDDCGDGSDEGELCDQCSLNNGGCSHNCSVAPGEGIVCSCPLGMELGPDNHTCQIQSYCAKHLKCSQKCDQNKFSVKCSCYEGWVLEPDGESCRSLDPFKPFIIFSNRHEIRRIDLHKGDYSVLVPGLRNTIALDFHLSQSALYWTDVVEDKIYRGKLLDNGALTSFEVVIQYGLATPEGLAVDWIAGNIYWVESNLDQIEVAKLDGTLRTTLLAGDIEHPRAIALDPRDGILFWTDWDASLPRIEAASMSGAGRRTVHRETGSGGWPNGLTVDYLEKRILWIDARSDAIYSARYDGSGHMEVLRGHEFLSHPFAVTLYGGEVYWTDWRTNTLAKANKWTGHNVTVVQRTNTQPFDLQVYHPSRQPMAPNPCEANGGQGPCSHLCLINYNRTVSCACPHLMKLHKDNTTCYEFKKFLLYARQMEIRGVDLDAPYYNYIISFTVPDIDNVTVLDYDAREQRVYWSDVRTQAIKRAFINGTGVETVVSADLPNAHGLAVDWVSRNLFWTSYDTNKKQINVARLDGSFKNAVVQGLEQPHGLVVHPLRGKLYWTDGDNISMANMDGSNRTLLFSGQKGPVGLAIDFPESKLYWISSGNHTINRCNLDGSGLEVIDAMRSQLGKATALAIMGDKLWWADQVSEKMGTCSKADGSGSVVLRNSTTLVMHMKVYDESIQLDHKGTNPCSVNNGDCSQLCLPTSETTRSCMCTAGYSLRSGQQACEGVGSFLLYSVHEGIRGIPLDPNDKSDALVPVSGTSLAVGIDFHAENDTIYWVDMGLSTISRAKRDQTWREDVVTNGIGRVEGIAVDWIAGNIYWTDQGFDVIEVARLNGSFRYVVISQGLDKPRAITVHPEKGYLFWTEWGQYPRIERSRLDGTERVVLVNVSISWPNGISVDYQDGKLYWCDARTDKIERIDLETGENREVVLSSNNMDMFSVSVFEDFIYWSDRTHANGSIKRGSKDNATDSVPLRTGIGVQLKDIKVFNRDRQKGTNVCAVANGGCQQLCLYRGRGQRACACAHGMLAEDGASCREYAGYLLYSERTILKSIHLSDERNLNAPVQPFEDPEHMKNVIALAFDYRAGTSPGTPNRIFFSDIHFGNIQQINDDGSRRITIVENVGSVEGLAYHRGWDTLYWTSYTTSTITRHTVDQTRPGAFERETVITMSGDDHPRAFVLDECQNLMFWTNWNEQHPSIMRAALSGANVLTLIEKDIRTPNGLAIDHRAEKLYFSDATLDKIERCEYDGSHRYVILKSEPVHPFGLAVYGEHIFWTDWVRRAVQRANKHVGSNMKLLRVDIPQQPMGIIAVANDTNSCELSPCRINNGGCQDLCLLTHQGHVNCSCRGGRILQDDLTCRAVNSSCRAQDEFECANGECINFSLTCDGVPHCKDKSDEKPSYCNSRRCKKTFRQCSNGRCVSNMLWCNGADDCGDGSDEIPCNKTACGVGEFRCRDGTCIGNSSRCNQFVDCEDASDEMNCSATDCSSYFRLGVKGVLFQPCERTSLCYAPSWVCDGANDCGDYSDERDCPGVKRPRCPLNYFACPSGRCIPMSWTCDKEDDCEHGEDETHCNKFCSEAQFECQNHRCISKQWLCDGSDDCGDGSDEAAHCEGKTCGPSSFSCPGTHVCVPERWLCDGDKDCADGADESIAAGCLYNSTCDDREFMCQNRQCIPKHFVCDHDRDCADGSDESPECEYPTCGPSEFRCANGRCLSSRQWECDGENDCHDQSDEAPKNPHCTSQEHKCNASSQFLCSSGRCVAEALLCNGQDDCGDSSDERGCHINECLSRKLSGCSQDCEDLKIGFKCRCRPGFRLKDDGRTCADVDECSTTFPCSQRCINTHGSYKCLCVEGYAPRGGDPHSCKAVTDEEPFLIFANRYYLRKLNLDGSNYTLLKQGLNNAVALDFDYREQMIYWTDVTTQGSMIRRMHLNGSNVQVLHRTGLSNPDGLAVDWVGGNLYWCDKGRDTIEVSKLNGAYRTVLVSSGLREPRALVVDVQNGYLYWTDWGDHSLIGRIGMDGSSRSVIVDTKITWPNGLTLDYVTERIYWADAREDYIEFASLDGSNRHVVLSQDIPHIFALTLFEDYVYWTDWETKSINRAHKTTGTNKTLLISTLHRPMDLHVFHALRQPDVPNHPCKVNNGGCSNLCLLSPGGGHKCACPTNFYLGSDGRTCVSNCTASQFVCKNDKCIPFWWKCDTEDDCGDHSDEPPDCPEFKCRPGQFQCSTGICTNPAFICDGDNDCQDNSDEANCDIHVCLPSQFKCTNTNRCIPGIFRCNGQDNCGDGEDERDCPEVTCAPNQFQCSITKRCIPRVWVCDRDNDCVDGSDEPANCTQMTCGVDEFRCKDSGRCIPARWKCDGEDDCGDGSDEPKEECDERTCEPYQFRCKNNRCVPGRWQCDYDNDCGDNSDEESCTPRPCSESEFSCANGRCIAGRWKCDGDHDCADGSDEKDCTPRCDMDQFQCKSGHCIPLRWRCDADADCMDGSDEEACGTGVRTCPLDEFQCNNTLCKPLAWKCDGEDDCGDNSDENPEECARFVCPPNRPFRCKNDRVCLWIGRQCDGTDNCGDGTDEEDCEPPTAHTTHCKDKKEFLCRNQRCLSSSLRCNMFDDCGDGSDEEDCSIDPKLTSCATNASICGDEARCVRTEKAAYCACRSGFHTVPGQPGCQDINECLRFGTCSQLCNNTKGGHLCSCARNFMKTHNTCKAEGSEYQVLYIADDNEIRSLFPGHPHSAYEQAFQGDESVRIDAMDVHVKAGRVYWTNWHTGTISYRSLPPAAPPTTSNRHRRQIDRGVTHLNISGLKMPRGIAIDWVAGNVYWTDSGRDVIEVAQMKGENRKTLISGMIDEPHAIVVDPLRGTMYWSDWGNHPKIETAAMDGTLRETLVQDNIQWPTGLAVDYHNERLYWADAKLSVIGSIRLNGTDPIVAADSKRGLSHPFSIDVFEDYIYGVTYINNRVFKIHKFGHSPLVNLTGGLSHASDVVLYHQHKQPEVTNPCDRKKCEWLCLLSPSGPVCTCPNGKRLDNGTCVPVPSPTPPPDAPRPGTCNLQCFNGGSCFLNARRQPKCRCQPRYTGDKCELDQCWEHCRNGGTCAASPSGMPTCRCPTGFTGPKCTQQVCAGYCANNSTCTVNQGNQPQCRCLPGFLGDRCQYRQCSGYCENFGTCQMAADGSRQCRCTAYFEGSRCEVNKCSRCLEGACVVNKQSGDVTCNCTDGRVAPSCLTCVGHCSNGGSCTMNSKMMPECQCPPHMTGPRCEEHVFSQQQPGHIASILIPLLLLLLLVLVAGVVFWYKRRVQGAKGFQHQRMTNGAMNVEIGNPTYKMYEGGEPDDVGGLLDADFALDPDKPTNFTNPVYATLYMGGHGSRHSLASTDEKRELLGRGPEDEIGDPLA

B1: TIMP-1 (protein)
chain: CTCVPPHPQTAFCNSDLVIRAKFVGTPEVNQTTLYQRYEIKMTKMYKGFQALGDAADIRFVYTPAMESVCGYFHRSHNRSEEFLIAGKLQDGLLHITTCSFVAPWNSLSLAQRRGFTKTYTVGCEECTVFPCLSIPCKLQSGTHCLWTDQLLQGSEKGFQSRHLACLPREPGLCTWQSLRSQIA
In the case of B1, the Kd is reported as 16 nM.
